Results published in US20190256864A1 (INDIANA UNIVERSITY RESEARCH AND TECHNOLOGY, published 2019).
Where a chain is given by its changes, count along the chain named. Names and notes keep the numbering of the source.

What was measured:
[1] = test system: T1, Wheat streak mosaic virus (WSMV) PBS1 decoy protein
T1 sequence: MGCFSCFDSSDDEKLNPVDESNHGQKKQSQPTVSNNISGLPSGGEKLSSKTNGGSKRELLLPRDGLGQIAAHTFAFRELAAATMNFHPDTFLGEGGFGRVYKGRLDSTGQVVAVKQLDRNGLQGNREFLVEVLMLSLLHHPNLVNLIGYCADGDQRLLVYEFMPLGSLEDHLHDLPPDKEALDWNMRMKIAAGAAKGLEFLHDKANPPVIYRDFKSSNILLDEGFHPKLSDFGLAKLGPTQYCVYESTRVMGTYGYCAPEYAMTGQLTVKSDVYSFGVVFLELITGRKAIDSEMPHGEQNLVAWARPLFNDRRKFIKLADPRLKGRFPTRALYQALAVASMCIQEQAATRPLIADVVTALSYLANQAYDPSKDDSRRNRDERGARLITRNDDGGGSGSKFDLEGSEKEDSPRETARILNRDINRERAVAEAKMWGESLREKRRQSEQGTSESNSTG

[2] = test system: T2, Soybean mosaic virus (SMV) PBS1 decoy protein
T2 sequence: T1 sequence with Q241E, Y242S, C243V, V244L, Y245S, E246Q

sYFP:LTI6b = molecular target: T3, sYFP:LTI6b (Arabidopsis thaliana, UniProt Q9ZNS6 1-54); assay: co-immunoprecipitation (GFP-Trap beads, anti-HA blot) after transient co-expression in N. benthamiana
T3 construct: Negative control in the co-immunoprecipitation; also called sYFP:LTI6b fusion protein; plasma membrane-localized negative control; not shown: N-terminal super yellow fluorescent protein (sYFP)
T3 sequence (looked up): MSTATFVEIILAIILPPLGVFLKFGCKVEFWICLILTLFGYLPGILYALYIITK
Protocol: To determine whether PBR1.c is activated by sensing cleavage of PBS1 proteins, co-immunoprecipitation (co-IP) analyses of PBR1.c with HvPBS1-1:HA, HvPBS1-2:HA, AtPBS1:HA, or NbPBS1:HA was performed. As a positive control, AtPBS1:HA was co-expressed with RPS5:sYFP, which forms a pre- activation complex in the absence of AvrPphB. As a negative control, the plasma membrane-localized fusion protein sYFP:LTI6b with each of the PBS1 proteins (Cutler et al., 2000). […] NbPBS1:HA also immunoprecipitated with PBR1.c:sYFP (and not with sYFP:LTI6b) supporting the notion that AvrPphB-mediated cleavage of NbPBS1 activates PBR1.c-dependent HR in N. benthamiana. Though all of the PBS1 proteins immunoprecipitated with PBR1.c:sYFP, PBR1.c:sYFP preferentially interacted with HvPBS1-2:HA and AtPBS1:HA (FIG. 7).
For transient expression assays in N. benthamiana, we followed the protocol described by DeYoung et al. (2012) and Kim et al. (2016). Briefly, the dexamethasone-inducible constructs were transformed into Agrobacterium tumefaciens GV3101 (pMP90) strains and were streaked onto Luria-Bertani (LB) plates containing 30 μg of gentamicin sulfate per milliliter and 50 μg of kanamycin per milliliter. […]

HvPBS1-2:HA = molecular target: T4, HvPBS1-2:HA
T4 chain: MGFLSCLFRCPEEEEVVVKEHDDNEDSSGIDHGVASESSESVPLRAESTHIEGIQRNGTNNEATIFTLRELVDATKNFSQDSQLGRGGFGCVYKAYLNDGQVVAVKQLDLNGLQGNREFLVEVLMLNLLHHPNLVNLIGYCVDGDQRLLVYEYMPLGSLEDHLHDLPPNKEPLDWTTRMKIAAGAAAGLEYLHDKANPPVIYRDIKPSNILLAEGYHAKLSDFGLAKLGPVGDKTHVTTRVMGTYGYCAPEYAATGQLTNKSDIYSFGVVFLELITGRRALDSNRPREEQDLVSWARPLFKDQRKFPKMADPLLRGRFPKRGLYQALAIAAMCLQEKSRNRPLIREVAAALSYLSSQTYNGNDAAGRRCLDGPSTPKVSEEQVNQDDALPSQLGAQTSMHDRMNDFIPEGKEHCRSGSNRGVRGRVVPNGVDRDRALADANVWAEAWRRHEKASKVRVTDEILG

HvPBS1-1:HA = molecular target: T5, HvPBS1-1:HA
T5 chain: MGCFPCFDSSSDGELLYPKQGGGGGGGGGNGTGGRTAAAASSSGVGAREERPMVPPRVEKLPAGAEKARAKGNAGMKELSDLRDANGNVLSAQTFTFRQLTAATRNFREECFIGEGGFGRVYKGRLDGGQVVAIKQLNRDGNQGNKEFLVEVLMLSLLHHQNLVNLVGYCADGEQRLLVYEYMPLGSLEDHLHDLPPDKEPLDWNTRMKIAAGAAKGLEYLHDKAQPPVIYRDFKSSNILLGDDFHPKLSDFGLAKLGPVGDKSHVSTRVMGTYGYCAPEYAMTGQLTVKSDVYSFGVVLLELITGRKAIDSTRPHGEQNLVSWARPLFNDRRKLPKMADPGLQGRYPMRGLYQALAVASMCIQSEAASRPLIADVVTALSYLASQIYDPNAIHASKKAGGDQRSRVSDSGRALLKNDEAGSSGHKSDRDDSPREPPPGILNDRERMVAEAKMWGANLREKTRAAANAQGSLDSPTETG

For “Wheat streak mosaic virus (WSMV) NIa protease”, the “cleavage of the substrate (immunoblot after transient co-expression in N. benthamiana)” value [1] was “demonstrating cleavage of the decoy PBS1 proteins only by the matching proteases” and the “cleavage of the substrate (immunoblot after transient co-expression in N. benthamiana); not cleaved by the non-matching protease” value [2] was “demonstrating cleavage of the decoy PBS1 proteins only by the matching proteases”.

B1: HvPBS1-1:HA (enzyme, not shown: small tags and cut ends)
chain: T5 chain
notes: also called HORVU2Hr1G070690.2; MLOC_13277
B1: no binding (sYFP:LTI6b).

B2: AvrPphB(C98S):myc (protein)
chain: MKIGTQATSLAVLHNQESHAPQAPIAVRPEPAHAIPEIPLDLAIRPRTRGIHPFLAMTLGDKGCASSSGVSLEDDSHTQVSLSDFSVASRDVNHNNISAGLSTEWLVMSSDGDAESRMDHLDYNGEGQSRGSERHQVYNDALRAALSNDDEAPFFTASTAVIEDAGFSLRREPKTVHASGGSAQLGQTVAHDVAQSGRKHLLSLRFANVQGHAIACSCEGSQFKLFDPNLGEFQSSRSAAPQLIKGLIDHYNSLNYDVACVNEFRVS
B2 was tested, and the “cleavage of the substrate (immunoblot after transient co-expression in N. benthamiana)” value (NbPBS1:HA) was “Co-expression with AvrPphB:myc, but not the protease inactive mutant, resulted in cleavage of NbPBS1:HA”, the “cleavage of the substrate (Western blot after transient co-expression in N. benthamiana)” value (HvPBS1-2:HA) was “This did not produce any cleavage products” and the “cleavage of the substrate (Western blot after transient co-expression in N. benthamiana)” value (HvPBS1-1:HA) was “This did not produce any cleavage products”.

B3: HvPBS1-2:HA (enzyme, not shown: small tags and cut ends)
chain: T4 chain
notes: also called HORVU3Hr1G035810.1; MLOC_12866
B3: no binding (sYFP:LTI6b).
